Experimental data published in the supplement of paper PMC7877785.
± gives the uncertainty stated by the source.

Assay: self-splicing fitness, log relative to wild type (ln ratio); higher = more splicing; Tetrahymena group I intron in knt gene, E. coli kanamycin selection, DiMSum; sequences stand for … in CUCUCU…GGAGGGAAAAGUUAUCAGGCAUGCACCUGGUAGCUAGUCUUUAAACCAAUAGAUUGCAUCGGUUUAAAAGGCAAGACCGUCAAAUUGCGGGAAAGGGGUCAACAGCCGUUCAGUACCAAGUCUCAGGGGAAACUUUGAGAUGGCCUUGCAAAGGGUAUGGUAAUAAGCUGACGGACAUGGUCCUAACCACGCAGCCAAGUCCUAAGUCAACAGAUCUUCUGUUGAUAUGGAUGCAGUUCACAGACUAAAUGUCGGUCGGGGAAGAUGUAUUCUUCUCAUAAGAUAUAGUCGGACCUCUCCUUAAUGGGAGCUAGCGGAUGAAGUGAUGCAACACUGGAGCCGCUGGGAACUAAUUUGUAUGCGAAAGUAUAUUGAUUAGUUUUGGAGUACUCGUGGUCG
Outline: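 Fitness was computed with DiMSum as the error-weighted combination of replicate fold changes, kanamycin versus none, each normalised to wild type. The library randomised all eight intron nucleotides of the P1ex region, with the intron placed in the knt kanamycin-resistance gene on pET-22b(+) in E. coli BL21(DE3). Six replicate transformations were grown overnight at 37°C or 30°C on LB agar with or without 25 μg/mL kanamycin, plus 100 μg/mL carbenicillin, 50 μM IPTG and 0.2% rhamnose. Pooled colonies were amplicon-sequenced on an Illumina HiSeq 2500.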

Row | Sequence | self-splicing fitness (ln) (30 °C) | self-splicing fitness (ln) (37 °C)
1 | AGGCAGCAAUAUUACGAACA | -1.45 ± 0.11 | -0.167 ± 0.14
2 | GGUAAGCAAUAUUACGGCAG | -3.62 ± 0.43 | -2.49 ± 0.45
3 | UGGCAGCAAUAUUACGACGG | -0.817 ± 0.15 | 0.837 ± 0.17
4 | CUCUAGCAAUAUUACGAGAG | -2.9 ± 0.18 | -1.69 ± 0.2
5 | UUCAAGCAAUAUUACGAUAU | -2.7 ± 0.18 | -1.42 ± 0.18
6 | UGUUAGCAAUAUUACGUGAU | -1.77 ± 0.14 | -1.96 ± 0.25
7 | GUCAAGCAAUAUUACGGAUG | -2.64 ± 0.12 | -0.795 ± 0.11
8 | ACACAGCAAUAUUACGUCCC | -1.16 ± 0.098 | -0.00572 ± 0.12
9 | UAACAGCAAUAUUACGGUAA | -2.07 ± 0.095 | -1.22 ± 0.081
10 | UCCGAGCAAUAUUACGAUCG | -3.27 ± 0.27 | -2.51 ± 0.34
11 | CCUGAGCAAUAUUACGUCGC |  | -2.54 ± 0.39
12 | AGAGAGCAAUAUUACGUCGU | -3.77 ± 0.32 | -1.78 ± 0.22
13 | UCUUAGCAAUAUUACGAGGG | -1.87 ± 0.16 | -2.1 ± 0.25
14 | CGACAGCAAUAUUACGGAAC | -3.4 ± 0.19 | -2.74 ± 0.23
15 | CUCAAGCAAUAUUACGGCCC | -2.42 ± 0.41 | 
16 | GCUCAGCAAUAUUACGUGCG | -1.32 ± 0.084 | -0.22 ± 0.1
17 | UCUUAGCAAUAUUACGGACA | -2.63 ± 0.2 | -1.19 ± 0.14
18 | AUCAAGCAAUAUUACGUCCC | -0.841 ± 0.076 | 0.17 ± 0.11
19 | ACUCAGCAAUAUUACGAGAC | -2.7 ± 0.24 | -1.87 ± 0.17
20 | UCGUAGCAAUAUUACGUGAC | -1.99 ± 0.26 | 

Row | Sequence | self-splicing fitness (ln) (30 °C) | self-splicing fitness (ln) (37 °C)
21 | GAGCAGCAAUAUUACGCAGU | -3.57 ± 0.2 | -1.4 ± 0.17
22 | CGACAGCAAUAUUACGUAUA | -4.3 ± 0.47 | -1.54 ± 0.27
23 | UCAGAGCAAUAUUACGGGAA |  | -2.4 ± 0.2
24 | UAAGAGCAAUAUUACGUAAC | -5.23 ± 0.45 | -1.44 ± 0.18
25 | GGGGAGCAAUAUUACGGUAU |  | -2.23 ± 0.39
26 | UAUUAGCAAUAUUACGAAUA | -0.842 ± 0.38 | -0.292 ± 0.38
27 | ACUGAGCAAUAUUACGGAGA | -3.46 ± 0.21 | -3.08 ± 0.27
28 | AGUGAGCAAUAUUACGAUAA | -4.08 ± 0.33 | -2.16 ± 0.25
29 | GCUAAGCAAUAUUACGUGCU | -2.4 ± 0.14 | -2.13 ± 0.25
30 | CCGAAGCAAUAUUACGGGUU | -4.22 ± 0.21 | -2.64 ± 0.16
31 | AUAAAGCAAUAUUACGGGGA | -1.96 ± 0.14 | -1.4 ± 0.18
32 | UACGAGCAAUAUUACGAAUA | -3.28 ± 0.47 | -2.87 ± 0.48
33 | UUGAAGCAAUAUUACGUAAG | -0.735 ± 0.083 | 0.223 ± 0.12
34 | AGCUAGCAAUAUUACGUAUU | -3.8 ± 0.23 | -1.35 ± 0.15
35 | CUCAAGCAAUAUUACGCGGG | -3.15 ± 0.25 | -2.42 ± 0.25
36 | CGAGAGCAAUAUUACGUGCG | -3.43 ± 0.29 | -1.8 ± 0.2
37 | GGAAAGCAAUAUUACGGGAA | -2.5 ± 0.36 | -2.92 ± 0.26
38 | UCCCAGCAAUAUUACGAGAA | -1.87 ± 0.18 | -0.452 ± 0.13
39 | ACUCAGCAAUAUUACGAUGG | -1.1 ± 0.063 | -0.87 ± 0.1
